Measurements from patent publication US12065505B2, “Antibodies and antigen binding peptides for factor XIa inhibitors and uses thereof” (Bristol-Myers Squibb Company, priority 2021, dated 2024).
Like-named read-outs stand apart in the source and are kept apart here.

Test: SPR (Biacore) Protein A mAb capture, Compound A injected
Details: 37° C., binding to Compound A, for rank ordering only
Experimental: The binding of hybridoma expressed 26D5 parent mAb (VH SEQ ID NO: 83 and VL SEQ ID NO: 98 in IgG1 f format)(P1-072224) and affinity matured mAbs to Compound A was examined by SPR (Biacore™) using a protein A capture method. The running buffer was 1×PBS (phosphate buffered saline, pH 7.4) with 0.05% Tween 20 and 2% DMSO. Binding experiments were carried out at 37° C. Protein A was coated on a CM5 S-series sensor chip (Cytiva, Cat. No. 29149603) at high density (2000+ RUs of protein A). The immobilization of protein A was carried out using the standard amine coupling immobilization procedure recommended by the manufacturer. The affinity matured antibody was then captured at a concentration of 2 ug/mL on the protein A surface at a flow rate of 3 uL/min for 2 minutes. Compound A was then injected over the captured antibody at concentrations spanning 100-3 nM (100, 50, 25, 12.5, 6.25, 3.125 nM) (FIG. 10) and for screening concentrations spanning 100-3 nM (100, 33, 11 nM) for 2 minutes at a flow rate of 100 uL/min and allowed to dissociate for at least 450 seconds. The chip surface was regenerated after each cycle with a 40 second pulse of 10 mM Glycine, pH 1.5. Background binding to the protein A surface alone was used to subtract non-specific binding. All experiments were run on a Biacore T200 surface plasmon resonance instrument using Biacore T200 Control software v. 2. Data analysis was performed using Biacore T200 evaluation software v 3.1. Apparent affinities were determined for rank ordering only since dissociation rates were too slow to be measured by Biacore. The names of the mAbs in Table 10 refer to mAbs having the H and L chain sequences of the corresponding Fabs in Table 3 in an IgG1f format.

[1] = apparent affinity, read-out: KD

Molecule	Kd [1] [nM]	Kd (apparent) [s⁻¹]	Ka (apparent) [M⁻¹ s⁻¹]
26D5-75576-348-B03-mAb: human IgG1f/kappa mAb; VH SEQ ID NO: 59, VL SEQ ID NO: 88 (antibody, V domains shown) VH: EVQLVESGGGLIQPGGSLRLSCAASGFTVSSNDMSYVRQAPGKGLEWVAYIYSGGRTYYADSVKGRFTISRDNSKNTLYLQMNSLRAEDTAVYYCVTAGFGGGDYWGQGTLVTVSS VL: DIQMTQSPSSVSASVGDRVTITCRASQGISSNLAWYQQKPGKAPKLLIYAASSLQSGVPSRFSGSGSGTDFTLTISSLQPEDFATYYCQQANSFPLTFGGGTKVEIK	< 0.06	<5e-05	880000
26D5-296-G07-mAb: human IgG1f/kappa mAb; VH SEQ ID NO: 65, VL SEQ ID NO: 94 (antibody, V domains shown) VH: EVQLVESGGGLIQPGGSLRLSCAASGFTVSENYMSWVRQAPGKGLEWVSFIYSGGRTYYADSVKGRFTISRDNSKNTLYLQMNSLRAEDTAVYYCARAGFGGGDYWGQGTLVTVSS VL: DIQMTQSPSSVSASVGDRVTITCRASQYISSNLAWYQQKPGKAPKLLIYAASSLQSGVPSRFSGSGSGTDFTLTISSLQPEDFATYYCQQANSFPLTFGGGTKVEIK	0.38	0.00032	850000
26D5-295-C07-mAb: human IgG1f/kappa mAb; VH SEQ ID NO: 67, VL SEQ ID NO: 88 (antibody, V domains shown) VH: EVQLVESGGGLIQPGGSLRLSCAASGFTVSSNAMSWVRQAPGKGLEWVSFIYSGGRTYYADSVKGRFTISRDNSKNTLYLQMNSLRAEDTAVYYCARGGFGGGDYWGQGTLVTVSS VL: DIQMTQSPSSVSASVGDRVTITCRASQGISSNLAWYQQKPGKAPKLLIYAASSLQSGVPSRFSGSGSGTDFTLTISSLQPEDFATYYCQQANSFPLTFGGGTKVEIK	1.6	0.00033	200000
25D5-296-A07-mAb: human IgG1f/kappa mAb; VH SEQ ID NO: 60, VL SEQ ID NO: 93 (antibody, V domains shown) VH: EVQLVESGGGLIQPGGSLRLSCAASGFTVSSNAMSWVRQAPGKGLEWVSFIYPGGRTYYADSVKGRFTISRDNSKNTLYLQMNSLRAEDTAVYYCARAGFGGGDYWGQGTLVTVSS VL: DIQMTQSPSSVSASVGDRVTITCRASQGISSWLAWYQQKPGKAPKLLIYAASSLQSGVPSRFSGSGSGTDFTLTISSLQPEDFATYYCQQHNSFPLTFGGGTKVEIK	1.6	0.00027	170000
26D5-75746-0348-C07-mAb: human IgG1f/kappa mAb; VH SEQ ID NO: 57, VL SEQ ID NO: 92 (antibody, V domains shown) VH: EVQLVESGGGLIQPGGSLRLSCAASGFTVSSNAFSWVRQAPGKGLEWVSYIYSGGRTYYADSVKGRFTISRDNSKNTLYLQMNSLRAEDTAVYYCAAAGFGGGDYWGQGTLVTVSS VL: DIQMTQSPSSVSASVGDRVTITCRASQGISSQVAWYQQKPGKAPKLLIYPASNLWSGVPSRFSGSGSGTDFTLTISSLQPEDFATYYCQQANNFPLTFGGGTKVEIK	0.1	0.00024	2.4e+06
26D5-296-B07-mAb: human IgG1f/kappa mAb; VH SEQ ID NO: 68, VL SEQ ID NO: 93 (antibody, V domains shown) VH: EVQLVESGGGLIQPGGSLRLSCAASGFQVSSNAMSWVRQAPGKGLEWVSFIYSGGRTYYADSVKGRFTISRDNSKNTLYLQMNSLRAEDTAVYYCARAGFGGGDYWGQGTLVTVSS VL: DIQMTQSPSSVSASVGDRVTITCRASQGISSWLAWYQQKPGKAPKLLIYAASSLQSGVPSRFSGSGSGTDFTLTISSLQPEDFATYYCQQHNSFPLTFGGGTKVEIK	1.8	0.00042	290000

The next lines start with results.

Kd [1] [nM]	Kd (apparent) [s⁻¹]	Molecule	Ka (apparent) [M⁻¹ s⁻¹]
< 0.05	<5e-05	26D5-75602-348-F04-mAb: human IgG1f/kappa mAb; VH SEQ ID NO: 58, VL SEQ ID NO: 88 (antibody, V domains shown) VH: EVQLVESGGGLIQPGGSLRLSCAASGFTVSSNQFSWVRQAPGKGLEWVSYFYPGGRTYYADSVKGRFTISRDNSKNTLYLQMNSLRAEDTAVYYCAKAGFGGGDYWGQGTLVTVSS VL: DIQMTQSPSSVSASVGDRVTITCRASQGISSNLAWYQQKPGKAPKLLIYAASSLQSGVPSRFSGSGSGTDFTLTISSLQPEDFATYYCQQANSFPLTFGGGTKVEIK	910000
1.1	0.00018	26D5-296-H03-mAb: human IgG1f/kappa mAb; VH SEQ ID NO: 63, VL SEQ ID NO: 88 (antibody, V domains shown) VH: EVQLVESGGGLIQPGGSLRLSCAASGFTVSSNAMSWVRQAPGKGLEWVSFIYPGGRTYYADSVKGRFTISRDNSKNTLYLQMNSLRAEDTAVYYCARGGFGGGDYWGQGTLVTVSS VL: DIQMTQSPSSVSASVGDRVTITCRASQGISSNLAWYQQKPGKAPKLLIYAASSLQSGVPSRFSGSGSGTDFTLTISSLQPEDFATYYCQQANSFPLTFGGGTKVEIK	160000
0.94	0.00017	26D5-295-F07-mAb: human IgG1f/kappa mAb; VH SEQ ID NO: 64, VL SEQ ID NO: 88 (antibody, V domains shown) VH: EVQLVESGGGLIQPGGSLRLSCAASGFTVSENAMSWVRQAPGKGLEWVSFIYSGGRTYYADSVKGRFTISRDNSKNTLYLQMNSLRAEDTAVYYCARGGFGGGDYWGQGTLVTVSS VL: DIQMTQSPSSVSASVGDRVTITCRASQGISSNLAWYQQKPGKAPKLLIYAASSLQSGVPSRFSGSGSGTDFTLTISSLQPEDFATYYCQQANSFPLTFGGGTKVEIK	180000
0.11	0.00017	26D5-075017-343-F04-mAb: human IgG1f/kappa mAb; VH SEQ ID NO: 60, VL SEQ ID NO: 91 (antibody, V domains shown) VH: EVQLVESGGGLIQPGGSLRLSCAASGFTVSSNAMSWVRQAPGKGLEWVSFIYPGGRTYYADSVKGRFTISRDNSKNTLYLQMNSLRAEDTAVYYCARAGFGGGDYWGQGTLVTVSS VL: DIQMTQSPSSVSASVGDRVTITCRASQGISSNLAWWQQKPGKAPKLLIYAASSLQSGVPSRFSGSGSGTDFTLTISSLQPEDFATYYCQQANSFPLTFGGGTKVEIK	1.5e+06
1.2	0.00023	26D5-295-E07-mAb: human IgG1f/kappa mAb; VH SEQ ID NO: 66, VL SEQ ID NO: 88 (antibody, V domains shown) VH: EVQLVESGGGLIQPGGSLRLSCAASGFQVSSNAMSWVRQAPGKGLEWVSFIYSGGRTYYADSVKGRFTISRDNSKNTLYLQMNSLRAEDTAVYYCARGGFGGGDYWGQGTLVTVSS VL: DIQMTQSPSSVSASVGDRVTITCRASQGISSNLAWYQQKPGKAPKLLIYAASSLQSGVPSRFSGSGSGTDFTLTISSLQPEDFATYYCQQANSFPLTFGGGTKVEIK	190000
0.1	0.00011	25D5-75592-0348-A04-mAb: human IgG1f/kappa mAb; VH SEQ ID NO: 61, VL SEQ ID NO: 89 (antibody, V domains shown) VH: EVQLVESGGGLIQPGGSLRLSCAASGFTVSSNAIAWVRQAPGKGLEWVAYIYPGGRTYYADSVKGRFTISRDNSKNTLYLQMNSLRAEDTAVYYCVTAGFGGGDYWGQGTLVTVSS VL: DIQMTQSPSSVSASVGDRVTITCRASQGISSNNQWYQQKPGKAPKLLIYYASSLQSGVPSRFSGSGSGTDFTLTISSLQPEDFATYYCQQGNEFPLTFGGGTKVEIK	1e+06
0.59	0.00031	26D5-296-C08-mAb: human IgG1f/kappa mAb; VH SEQ ID NO: 66, VL SEQ ID NO: 95 (antibody, V domains shown) VH: EVQLVESGGGLIQPGGSLRLSCAASGFQVSSNAMSWVRQAPGKGLEWVSFIYSGGRTYYADSVKGRFTISRDNSKNTLYLQMNSLRAEDTAVYYCARGGFGGGDYWGQGTLVTVSS VL: DIQMTQSPSSVSASVGDRVTITCRASQYIESNLAWYQQKPGKAPKLLIYAASSLQSGVPSRFSGSGSGTDFTLTISSLQPEDFATYYCQQANSFPLTFGGGTKVEIK	530000
